# Test results: patent publication US20060153838A1
# Assays:
# [1] = molecular target: soluble human FcγRIII (biotinylated) (human) (UniProt P08637); experiment: ELISA: IgG captured on PSA-coated plate, biotinylated soluble FcγR, NeutrAvidin-AP, A560 background-subtracted and normalized
# [2] = molecular target: soluble human FcγRIIb (biotinylated) (human) (UniProt P31994); experiment: as above
# [3] = molecular target: soluble human FcγRIIa (biotinylated) (human) (UniProt P12318); experiment: as above
# [4] = molecular target: soluble human FcγRIII (biotinylated) (human) (UniProt P08637); experiment: ELISA screen in a manner similar to the anti-PSA library, anti-TNFα parent IgG, biotinylated soluble FcγR, normalized signal
# [5] = molecular target: soluble human FcγRIIb (biotinylated) (human) (UniProt P31994); experiment: as above
# UniProt P08637, sequence (P08637 17-208): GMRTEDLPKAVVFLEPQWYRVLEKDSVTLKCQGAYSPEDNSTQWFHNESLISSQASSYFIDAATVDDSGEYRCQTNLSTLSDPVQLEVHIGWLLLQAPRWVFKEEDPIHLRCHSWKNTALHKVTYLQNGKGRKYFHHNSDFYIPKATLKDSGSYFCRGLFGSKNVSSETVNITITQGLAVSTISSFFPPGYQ
# UniProt P31994, sequence (P31994 43-217): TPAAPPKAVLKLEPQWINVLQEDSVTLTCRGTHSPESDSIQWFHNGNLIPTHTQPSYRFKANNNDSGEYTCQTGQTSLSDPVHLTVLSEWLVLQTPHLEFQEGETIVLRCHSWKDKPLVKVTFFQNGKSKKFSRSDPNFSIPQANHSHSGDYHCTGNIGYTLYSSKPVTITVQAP
# UniProt P12318, sequence (P12318 34-217): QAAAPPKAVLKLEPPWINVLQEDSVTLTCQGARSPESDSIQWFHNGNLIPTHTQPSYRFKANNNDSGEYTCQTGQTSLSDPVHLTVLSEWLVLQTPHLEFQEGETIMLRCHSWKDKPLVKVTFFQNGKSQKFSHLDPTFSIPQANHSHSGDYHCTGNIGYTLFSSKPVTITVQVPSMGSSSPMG
relative FcγRIII (relative to parental antibody = 1.0) [1],relative FcγRIIb (relative to parental antibody = 1.0) [2],relative FcγRIIa (relative to parental antibody = 1.0) [3],relative FcγRIII (relative to parental antibody = 1.0) [4],relative FcγRIIb (relative to parental antibody = 1.0) [5],Substance
1.14,0.672,–,–,–,anti-PSA IgG Fc variant E294N (antibody)
1.47,0.892,–,–,–,anti-PSA IgG Fc variant Q295K (antibody)
1.06,1.34,1.44,–,–,anti-PSA IgG Fc variant Q295L (antibody)
2.31,0.188,–,–,–,anti-PSA IgG Fc variant S298D (antibody)
1.42,0.363,–,–,–,anti-PSA IgG Fc variant S298N (antibody)
2.8,0.592,–,–,–,anti-PSA IgG Fc variant S298V (antibody)
1.38,1.26,–,–,–,anti-PSA IgG Fc variant Y300I (antibody)
1.81,1.36,–,–,–,anti-PSA IgG Fc variant Y300L (antibody)
–,–,–,1.24,0.92,anti-TNFα IgG Fc variant D280H (antibody)
–,–,–,1.19,0.87,anti-TNFα IgG Fc variant D280Q (antibody)
–,–,–,1.23,2.14,anti-TNFα IgG Fc variant D280Y (antibody)
–,–,–,1.64,1.46,anti-TNFα IgG Fc variant K290G (antibody)
–,–,–,1.23,1.4,anti-TNFα IgG Fc variant K290S (antibody)
